Laboratory results from article PMC9481740 (The Journal of Cell Biology, 2022).
Several values for one entry are separate records, joined by “and”; a condition that tells them apart may be missing. Identical values can stand only once.

Key:
[1] = target: ^mChSpindly^Y26BPA (human) (UniProt Q96EA4); assay: mass photometry; Refeyn TwoMP; sample diluted to a final 10 nM in Spindly buffer (50 mM Hepes pH 8.0, 250 mM NaCl, 2 mM TCEP); crosslinked samples measured after dilution beside untreated controls
[2] = target: the molecule itself; assay: as above
Spindly^250–605 = target: T1, Spindly^250–605 (human, UniProt Q96EA4 250-605); assay: SEC; Spindly N-terminal and C-terminal fragments mixed, 10 µM each; 4°C, Spindly buffer; fractions on SDS-PAGE; conditions: both partners purified
T1 construct: also called CC2 and CC3; source: TnAO38 insect cells (baculovirus), purified (HisTrap, Resource Q, Superdex 200)
T1 sequence (looked up): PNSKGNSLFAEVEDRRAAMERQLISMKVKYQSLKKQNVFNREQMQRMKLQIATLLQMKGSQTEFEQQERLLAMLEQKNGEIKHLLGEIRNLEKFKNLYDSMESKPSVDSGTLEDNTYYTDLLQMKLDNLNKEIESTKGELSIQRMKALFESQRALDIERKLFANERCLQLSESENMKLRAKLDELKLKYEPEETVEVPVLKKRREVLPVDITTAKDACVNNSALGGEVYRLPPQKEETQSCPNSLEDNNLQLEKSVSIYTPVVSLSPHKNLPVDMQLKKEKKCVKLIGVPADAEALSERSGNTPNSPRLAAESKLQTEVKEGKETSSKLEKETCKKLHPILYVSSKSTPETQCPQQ

[3] = target: T2, mCherry-tagged full-length Spindly (^mChSpindly^FL) (human), Q96EA4; assay: mass photometry; Refeyn TwoMP; sample diluted to a final 10 nM in Spindly buffer (50 mM Hepes pH 8.0, 250 mM NaCl, 2 mM TCEP); crosslinked samples measured after dilution beside untreated controls; conditions: remark: other sources report otherwise
T2 chain: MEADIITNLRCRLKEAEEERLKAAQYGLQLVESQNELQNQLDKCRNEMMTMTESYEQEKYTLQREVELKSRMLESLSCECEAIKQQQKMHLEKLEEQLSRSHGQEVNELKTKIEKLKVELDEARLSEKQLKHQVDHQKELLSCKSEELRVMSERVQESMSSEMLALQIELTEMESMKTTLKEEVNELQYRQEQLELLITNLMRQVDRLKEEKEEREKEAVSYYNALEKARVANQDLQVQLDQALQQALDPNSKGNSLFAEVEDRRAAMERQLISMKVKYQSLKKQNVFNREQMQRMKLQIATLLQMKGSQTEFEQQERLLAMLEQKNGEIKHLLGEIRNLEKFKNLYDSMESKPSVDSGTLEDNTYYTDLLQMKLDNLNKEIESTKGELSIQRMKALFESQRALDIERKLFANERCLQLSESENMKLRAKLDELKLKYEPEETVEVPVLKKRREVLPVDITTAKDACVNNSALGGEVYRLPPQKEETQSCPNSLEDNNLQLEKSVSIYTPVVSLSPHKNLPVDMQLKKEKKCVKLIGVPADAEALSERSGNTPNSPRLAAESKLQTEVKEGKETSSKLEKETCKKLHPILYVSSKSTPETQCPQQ

[4] = target: T3, full-length Spindly without mCherry tag (human), Q96EA4; assay: as above; conditions: remark: other sources report otherwise
T3 chain: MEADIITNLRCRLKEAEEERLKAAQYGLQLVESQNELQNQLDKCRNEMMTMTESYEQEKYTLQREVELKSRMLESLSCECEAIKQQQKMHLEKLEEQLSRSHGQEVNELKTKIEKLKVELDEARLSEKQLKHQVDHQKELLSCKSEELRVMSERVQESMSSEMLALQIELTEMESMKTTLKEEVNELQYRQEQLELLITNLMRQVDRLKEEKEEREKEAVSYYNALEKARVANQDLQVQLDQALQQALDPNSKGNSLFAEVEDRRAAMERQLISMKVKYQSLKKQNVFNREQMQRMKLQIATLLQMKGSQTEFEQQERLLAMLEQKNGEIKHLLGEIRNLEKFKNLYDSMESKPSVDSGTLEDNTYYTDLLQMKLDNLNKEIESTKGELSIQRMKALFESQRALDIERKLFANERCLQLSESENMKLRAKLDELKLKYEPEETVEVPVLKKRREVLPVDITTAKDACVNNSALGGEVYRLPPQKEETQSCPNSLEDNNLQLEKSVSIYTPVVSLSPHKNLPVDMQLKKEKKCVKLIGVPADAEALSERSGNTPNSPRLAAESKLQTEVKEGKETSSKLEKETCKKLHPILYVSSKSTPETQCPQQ

Work on “^mChSpindly^Y26BPA (from UniProt Q96EA4 1-605) (natural protein)” yielded a stoichiometry N [1] of 2.

B1: ^mChSpindly^∆276–306 (natural protein, human, UniProt Q96EA4 1-605, looked up)
chain: MEADIITNLRCRLKEAEEERLKAAQYGLQLVESQNELQNQLDKCRNEMMTMTESYEQEKYTLQREVELKSRMLESLSCECEAIKQQQKMHLEKLEEQLSRSHGQEVNELKTKIEKLKVELDEARLSEKQLKHQVDHQKELLSCKSEELRVMSERVQESMSSEMLALQIELTEMESMKTTLKEEVNELQYRQEQLELLITNLMRQVDRLKEEKEEREKEAVSYYNALEKARVANQDLQVQLDQALQQALDPNSKGNSLFAEVEDRRAAMERQLISMKGSQTEFEQQERLLAMLEQKNGEIKHLLGEIRNLEKFKNLYDSMESKPSVDSGTLEDNTYYTDLLQMKLDNLNKEIESTKGELSIQRMKALFESQRALDIERKLFANERCLQLSESENMKLRAKLDELKLKYEPEETVEVPVLKKRREVLPVDITTAKDACVNNSALGGEVYRLPPQKEETQSCPNSLEDNNLQLEKSVSIYTPVVSLSPHKNLPVDMQLKKEKKCVKLIGVPADAEALSERSGNTPNSPRLAAESKLQTEVKEGKETSSKLEKETCKKLHPILYVSSKSTPETQCPQQ
notes: predominantly dimeric, with a tendency to form tetramers; source: E. coli BL21 CodonPlus, purified (HisTrap, Resource Q, Superdex 200); not shown: mCherry, N-terminal, kept
With B1 the “stoichiometry N” value [2] was 2 and 4.

B2: Spindly^1–250 (domain or fragment, human, UniProt Q96EA4 1-250, looked up)
chain: MEADIITNLRCRLKEAEEERLKAAQYGLQLVESQNELQNQLDKCRNEMMTMTESYEQEKYTLQREVELKSRMLESLSCECEAIKQQQKMHLEKLEEQLSRSHGQEVNELKTKIEKLKVELDEARLSEKQLKHQVDHQKELLSCKSEELRVMSERVQESMSSEMLALQIELTEMESMKTTLKEEVNELQYRQEQLELLITNLMRQVDRLKEEKEEREKEAVSYYNALEKARVANQDLQVQLDQALQQALDP
notes: also called CC1; source: TnAO38 insect cells (baculovirus), purified (HisTrap, Resource Q, Superdex 200)
B2: binds (Spindly^250–605).

B3: mCherry-tagged full-length Spindly (^mChSpindly^FL), Q96EA4 1-605 (natural protein)
chain: MEADIITNLRCRLKEAEEERLKAAQYGLQLVESQNELQNQLDKCRNEMMTMTESYEQEKYTLQREVELKSRMLESLSCECEAIKQQQKMHLEKLEEQLSRSHGQEVNELKTKIEKLKVELDEARLSEKQLKHQVDHQKELLSCKSEELRVMSERVQESMSSEMLALQIELTEMESMKTTLKEEVNELQYRQEQLELLITNLMRQVDRLKEEKEEREKEAVSYYNALEKARVANQDLQVQLDQALQQALDPNSKGNSLFAEVEDRRAAMERQLISMKVKYQSLKKQNVFNREQMQRMKLQIATLLQMKGSQTEFEQQERLLAMLEQKNGEIKHLLGEIRNLEKFKNLYDSMESKPSVDSGTLEDNTYYTDLLQMKLDNLNKEIESTKGELSIQRMKALFESQRALDIERKLFANERCLQLSESENMKLRAKLDELKLKYEPEETVEVPVLKKRREVLPVDITTAKDACVNNSALGGEVYRLPPQKEETQSCPNSLEDNNLQLEKSVSIYTPVVSLSPHKNLPVDMQLKKEKKCVKLIGVPADAEALSERSGNTPNSPRLAAESKLQTEVKEGKETSSKLEKETCKKLHPILYVSSKSTPETQCPQQ
Work on B3 yielded a stoichiometry N [3] of 2.

B4: full-length Spindly without mCherry tag, Q96EA4 1-605 (natural protein)
chain: MEADIITNLRCRLKEAEEERLKAAQYGLQLVESQNELQNQLDKCRNEMMTMTESYEQEKYTLQREVELKSRMLESLSCECEAIKQQQKMHLEKLEEQLSRSHGQEVNELKTKIEKLKVELDEARLSEKQLKHQVDHQKELLSCKSEELRVMSERVQESMSSEMLALQIELTEMESMKTTLKEEVNELQYRQEQLELLITNLMRQVDRLKEEKEEREKEAVSYYNALEKARVANQDLQVQLDQALQQALDPNSKGNSLFAEVEDRRAAMERQLISMKVKYQSLKKQNVFNREQMQRMKLQIATLLQMKGSQTEFEQQERLLAMLEQKNGEIKHLLGEIRNLEKFKNLYDSMESKPSVDSGTLEDNTYYTDLLQMKLDNLNKEIESTKGELSIQRMKALFESQRALDIERKLFANERCLQLSESENMKLRAKLDELKLKYEPEETVEVPVLKKRREVLPVDITTAKDACVNNSALGGEVYRLPPQKEETQSCPNSLEDNNLQLEKSVSIYTPVVSLSPHKNLPVDMQLKKEKKCVKLIGVPADAEALSERSGNTPNSPRLAAESKLQTEVKEGKETSSKLEKETCKKLHPILYVSSKSTPETQCPQQ
Molecule B4 has a stoichiometry N [4] of 2.
